The values below come from article PMC4227789 (Nucleic Acids Research, 2014).

The test deals with p53 DNA-binding domain (residues 92-312), recombinant untagged (Homo sapiens, UniProt P04637). Nature of the test: ITC.
Chain of p53 DNA-binding domain (residues 92-312), recombinant untagged (P04637 92-312): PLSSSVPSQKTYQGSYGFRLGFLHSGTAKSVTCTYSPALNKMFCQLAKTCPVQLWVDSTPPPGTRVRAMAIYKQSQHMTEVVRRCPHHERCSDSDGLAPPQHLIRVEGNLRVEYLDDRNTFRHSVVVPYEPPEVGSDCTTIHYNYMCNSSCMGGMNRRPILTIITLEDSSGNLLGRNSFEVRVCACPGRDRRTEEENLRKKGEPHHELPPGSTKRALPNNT

B1: p53 DBD nanobody 139, recombinant V5-tagged (VHH)
VHH: QVQLQESGGGLVQAGGSLRLSCAASERTFSTYAMGWFRQAPGREREFLAQINWSGTTTYYAESVKDRTTISRDNAKNTVYLEMNNLNADDTGIYFCAAHPQRGWGSTLGWTYWGQGTQVTVSS
A word on the Kd: it is the concentration at which binding is half-saturated. The term stoichiometry N denotes the number of molecules, sites or subunits per partner or assembly. With B1, the Kd was roughly 1000 nM and the “stoichiometry N” value was determined as 1.
